According to US12016906B2, “Pharmaceutical composition for anaemia” (Frimline Private Limited, priority 2018, dated 2024):

Experiments:
Format in all cases: in vivo, male Wistar rats (Rat Rattus)
Details in all cases: IDD rats
[1] = system: Iron deficient Diet (IDD) induced anaemia in rats; assay: Hb level in IDD induced anaemia in rats
Procedure: (§1) Screening of pharmaceutical composition/formulation comprising combination of Lactoferrin+Guanosine Nucleotide or a pharmaceutically acceptable salt thereof with or without optional ingredients against Iron deficient Diet (IDD) induced anaemia in rats. For this study different parameters like Hb Level, Hematocrit level, Serum Iron level, Ferroportin level, Serum Ferritin level, Hepcidin level and IL-6 Level were evaluated. The following trials were carried out by taking reference from Wang Xl, Liu S, Xu H, Yan W, Effects of recombinant human lactoferrin on improving the iron status of IDA. Wei Sheng Yan Jiu.
(§2) 72 male Wistar rats (Rat Rattus) (6 per group) were maintained in animal house in a light/dark atmosphere based on a 12 hour cycle having temperature and relative humidity in the range of 22±3° C. and 30-70% respectively. To maintain the appropriate conditions, temperature and relative humidity were recorded three times daily. All animals were acclimatized for a minimum period of five days. Animals were maintained in the test setup for minimum 30 minutes once during the acclimatization period to reduce the stress. Animals were weighed on the day of receipt and observed daily for abnormalities if any. Detailed records of acclimatization were also maintained. Rats were housed 6 per cage in clean, sterilized Polypropylene cages. […]
After 3 weeks of respective dietary intervention, the level of Hemoglobin was determined in each animal.
(§3) After 5 weeks (35 days) of respective dietary intervention, once again hemoglobin level, HCT % level and serum iron level were analyzed and then, respective drug treatment was started with continuous administration of Iron deficient diets in all groups as mentioned above in Table 1.
(§4) After 9 weeks of respective drug treatment (total after 14 weeks from start of the study—98 days), various biochemical parameters were measured to evaluate the effect of respective individual and combination therapy on iron deficient anaemia model (G3 to G12). […]

[2] = system: Iron deficient Diet (IDD) induced anaemia in rats; assay: IL-6 level in IDD induced anaemia in rats
Procedure: as §1
(§5) 72 male Wistar rats (Rat Rattus) (6 per group) were maintained in animal house in a light/dark atmosphere based on a 12 hour cycle having temperature and relative humidity in the range of 22±3° C. and 30-70% respectively. To maintain the appropriate conditions, temperature and relative humidity were recorded three times daily. All animals were acclimatized for a minimum period of five days. […]
(§6) After 5 weeks (35 days) of respective dietary intervention, once again hemoglobin level, HCT % level and serum iron level were analyzed and then, respective drug treatment was started with continuous administration of Iron deficient diets in all groups as mentioned above in Table 1. […]

[3] = system: Iron deficient Diet (IDD) induced anaemia in rats; assay: Hematocrit % level in IDD induced anaemia in rats
Procedure: as §1, with “Jiu. 2012 January; 41(1):13-7, 22 and Nora M. El-Sheikh, the Protective Effect of Soybean and Thyme on Iron Deficiency Anemia in Rats, the Egyptian Journal of Hospital Medicine (2008) Vol., 33: 510-520 as available.” for “Jiu.”
as §2, with “any.” for “any. Detailed records of acclimatization were also maintained. Rats were housed 6 per cage in clean, sterilized Polypropylene cages.”
(§7) After 3 weeks of respective dietary intervention, the level of Hemoglobin was determined in each animal. […]
as §3, §4

[4] = system: Iron deficient Diet (IDD) induced anaemia in rats; assay: Serum iron level in IDD induced anaemia in rats
Procedure: as §1, with “Jiu. 2012 January; 41(1):13-7, 22 and Nora M. El-Sheikh, the Protective Effect of Soybean and Thyme on Iron Deficiency Anemia in Rats, the Egyptian Journal of Hospital Medicine (2008) Vol., 33: 510-520 as available.” for “Jiu.”
as §2, with “any.” for “any. Detailed records of acclimatization were also maintained. Rats were housed 6 per cage in clean, sterilized Polypropylene cages.”
as §7, §3, §4

[5] = system: Iron deficient Diet (IDD) induced anaemia in rats; assay: Serum ferritin level in IDD induced anaemia in rats
Procedure: as §1, with “Jiu. […]” for “Jiu.”
as §5, with “daily.” for “daily. All animals were acclimatized for a minimum period of five days.”
as §6

[6] = system: Iron deficient Diet (IDD) induced anaemia in rats; assay: Hepcidin level in IDD induced anaemia in rats
Procedure: as §1, with “Jiu. […]” for “Jiu.”
as §5, with “daily.” for “daily. All animals were acclimatized for a minimum period of five days.”
as §6

[7] = system: Iron deficient Diet (IDD) induced anaemia in rats; assay: Ferroportin level in IDD induced anaemia in rats
Procedure: as §1, with “Jiu. […]” for “Jiu.”
as §5, with “daily.” for “daily. All animals were acclimatized for a minimum period of five days.”
as §6

[8] = Day 98, after 9 weeks of treatment p.o.

B1: Lactoferrin: multifunctional globular glycoprotein of the transferrin family, about 80 kDa; individual component group (protein, UniProt P02788 20-710, looked up)
Lactotransferrin: GRRRSVQWCAVSQPEATKCFQWQRNMRKVRGPPVSCIKRDSPIQCIQAIAENRADAVTLDGGFIYEAGLAPYKLRPVAAEVYGTERQPRTHYYAVAVVKKGGSFQLNELQGLKSCHTGLRRTAGWNVPIGTLRPFLNWTGPPEPIEAAVARFFSASCVPGADKGQFPNLCRLCAGTGENKCAFSSQEPYFSYSGAFKCLRDGAGDVAFIRESTVFEDLSDEAERDEYELLCPDNTRKPVDKFKDCHLARVPSHAVVARSVNGKEDAIWNLLRQAQEKFGKDKSPKFQLFGSPSGQKDLLFKDSAIGFSRVPPRIDSGLYLGSGYFTAIQNLRKSEEEVAARRARVVWCAVGEQELRKCNQWSGLSEGSVTCSSASTTEDCIALVLKGEADAMSLDGGYVYTAGKCGLVPVLAENYKSQQSSDPDPNCVDRPVEGYLAVAVVRRSDTSLTWNSVKGKKSCHTAVDRTAGWNIPMGLLFNQTGSCKFDEYFSQSCAPGSDPRSNLCALCIGDEQGENKCVPNSNERYYGYTGAFRCLAENAGDVAFVKDVTVLQNTDGNNNEAWAKDLKLADFALLCLDGKRKPVTEARSCHLAMAPNHAVVSRMDKVERLKQVLLHQQAKFGRNGSDCPDKFCLFQSETKNLLFNDNTECLARLHGKTTYEKYLGPQYVAGITNLKKCSTSPLLEACEFLRK
[1]; Day 35, before treatment
  Hemoglobin Pre-treatment: 8.8 g/dL
[1]; [8]
  Hemoglobin Post-treatment: 10.3 g/dL
[1]; Day 98
  Hemoglobin % Change compared to Disease control: 58.8%
[2]; [8]
  IL-6 Post-treatment: 57.2 pg/mL
[2]; Day 98
  IL-6 % Change compared to Disease control: −8.2%
[3]; Day 35, before treatment
  Hematocrit Pre-treatment: 35.33%
[3]; [8]
  Hematocrit Post-treatment: 40.17%
[3]; Day 98
  Hematocrit % Change compared to Disease control: 56.3%
[4]; Day 35, before treatment
  Serum IRON Pre-treatment: 3.08 ppm
[4]; [8]
  Serum IRON Post-treatment: 5.31 ppm
[4]; Day 98
  Serum IRON % Change compared to Disease control: 99.1%
[5]; [8]
  Ferritin Post-treatment: 680 ng/mL
[5]; Day 98
  Ferritin % Change compared to Disease control: −8.1%
[6]; [8]
  Hepcidin Post-treatment: 3830 ng/mL
[6]; Day 98
  Hepcidin % Change compared to Disease control: −13.0%
[7]; [8]
  Ferroportin Post-treatment: 3.6 ng/mL
[7]; Day 98
  Ferroportin % Change compared to Disease control: 31.4%
